Assays:
[1] = biological target: STM3605f, full-length Se-labeled non-methylated variant (Salmonella enterica serovar Typhimurium LT2); assay: crystal structure
[2] = biological target: STM3605t (STM3605 residues 5-107, SeMet-labeled and reductively methylated) (Salmonella enterica serovar Typhimurium LT2); assay: crystal structure

Row | Substance | stoichiometry N [1] | stoichiometry N [2]
1 | STM3605f, full-length Se-labeled non-methylated variant (natural protein) | 2 | 
2 | STM3605t (STM3605 residues 5-107, SeMet-labeled and reductively methylated) (domain or fragment) |  | 2

From PMC3699403
